No end group written: not given here.
Key:
Assay in all cases: Kinase Profiling Assay
Type in all cases: biochemical
Settings in all cases: peptide 100 μM
PKBβ(h) = PKBβ(h) (Homo sapiens, UniProt P31751)
In short: (§1)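 Measured twice per kinase, activity in presence of MK2 inhibitory peptide was calculated against a 100% activity control after radiometric phosphorylation of a cationic substrate, anionic filter capture and scintillation counting; one of 266 human kinases profiled for specificity.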

Rsk4(h) = target: T1, Rsk4(h) (Homo sapiens, UniProt Q9UK32)
T1 construct: purchased Millipore
In short: as §1

PKCε(h) = target: T2, PKCε(h) (Homo sapiens, UniProt Q02156)
T2 sequence (Q02156 1-737): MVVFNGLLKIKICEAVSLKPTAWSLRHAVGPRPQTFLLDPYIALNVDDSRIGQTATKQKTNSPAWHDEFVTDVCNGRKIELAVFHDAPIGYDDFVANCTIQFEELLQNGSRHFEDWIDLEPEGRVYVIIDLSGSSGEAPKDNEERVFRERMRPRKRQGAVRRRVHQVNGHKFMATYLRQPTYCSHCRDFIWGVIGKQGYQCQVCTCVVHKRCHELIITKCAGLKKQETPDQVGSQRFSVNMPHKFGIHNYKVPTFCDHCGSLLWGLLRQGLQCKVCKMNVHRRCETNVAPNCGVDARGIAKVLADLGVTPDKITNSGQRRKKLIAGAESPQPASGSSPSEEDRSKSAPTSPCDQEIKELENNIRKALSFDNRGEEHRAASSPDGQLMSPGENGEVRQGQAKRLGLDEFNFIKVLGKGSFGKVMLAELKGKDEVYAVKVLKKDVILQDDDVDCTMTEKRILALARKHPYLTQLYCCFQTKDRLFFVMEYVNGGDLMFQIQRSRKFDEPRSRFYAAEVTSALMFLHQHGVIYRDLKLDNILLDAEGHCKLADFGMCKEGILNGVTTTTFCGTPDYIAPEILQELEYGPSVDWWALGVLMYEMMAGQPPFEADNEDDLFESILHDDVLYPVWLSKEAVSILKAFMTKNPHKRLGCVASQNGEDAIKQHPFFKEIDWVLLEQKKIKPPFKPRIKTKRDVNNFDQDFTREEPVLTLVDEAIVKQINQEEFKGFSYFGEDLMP
In short: as §1

CK1δ(h) = CK1δ(h) (Homo sapiens, UniProt P48730)
In short: as §1

IR(h), activated = target: T3, IR(h), activated (Homo sapiens, UniProt P06213)
T3 construct: purchased Millipore
In short: as §1

Fer(h) = Fer(h) (Homo sapiens, UniProt P16591)
In short: as §1

EphA5(h) = EphA5(h) (Homo sapiens, UniProt P54756)
In short: as §1

MSK1(h) = target: T4, MSK1(h) (Homo sapiens, UniProt O75582)
T4 construct: purchased Millipore
In short: as §1

MLCK(h) = target: T5, MLCK(h) (Homo sapiens, UniProt Q9H1R3)
T5 construct: purchased Millipore
In short: as §1

EGFR(L861Q)(h) = EGFR(L861Q)(h) (Homo sapiens, UniProt P00533, L861Q)
In short: as §1

FGFR4(h) = FGFR4(h) (Homo sapiens, UniProt P22455)
In short: as §1

DMPK(h) = target: T6, DMPK(h) (Homo sapiens, UniProt Q09013)
T6 sequence (Q09013 1-629): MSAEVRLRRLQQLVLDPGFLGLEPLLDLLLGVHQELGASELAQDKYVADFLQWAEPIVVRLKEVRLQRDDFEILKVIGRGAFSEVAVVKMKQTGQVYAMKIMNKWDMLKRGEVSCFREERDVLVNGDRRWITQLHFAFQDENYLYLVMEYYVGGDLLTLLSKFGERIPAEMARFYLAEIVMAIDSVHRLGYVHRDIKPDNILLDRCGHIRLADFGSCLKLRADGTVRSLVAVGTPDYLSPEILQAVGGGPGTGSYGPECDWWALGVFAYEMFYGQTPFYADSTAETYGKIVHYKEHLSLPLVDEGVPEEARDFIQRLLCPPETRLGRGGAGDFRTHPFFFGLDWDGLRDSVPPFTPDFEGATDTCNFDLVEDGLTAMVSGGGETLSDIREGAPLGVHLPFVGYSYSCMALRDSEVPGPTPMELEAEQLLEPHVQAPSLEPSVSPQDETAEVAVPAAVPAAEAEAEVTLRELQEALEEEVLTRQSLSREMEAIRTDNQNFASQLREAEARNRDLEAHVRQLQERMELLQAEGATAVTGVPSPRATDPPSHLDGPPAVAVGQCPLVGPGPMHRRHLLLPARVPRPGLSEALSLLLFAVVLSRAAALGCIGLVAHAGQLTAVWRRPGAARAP
In short: as §1

Tie2(Y897S)(h) = Tie2(Y897S)(h) (Homo sapiens, UniProt Q02763, Y897S)
In short: as §1

PKCβI(h) = PKCβI(h) (Homo sapiens, UniProt P05771)
In short: as §1

CDK3/cyclinE(h) = CDK3/cyclinE(h) (Homo sapiens, UniProt Q00526)
In short: as §1

Met(D1246H)(h) = target: T7, Met(D1246H)(h) (Homo sapiens, UniProt P08581, D1228H)
T7 construct: purchased Millipore
In short: as §1

cSRC(h) = cSRC(h) (Homo sapiens, UniProt P12931)
In short: as §1

JNK1α1(h) = target: T8, JNK1α1(h) (Homo sapiens, UniProt P45983)
T8 construct: purchased Millipore
In short: as §1

Snk(h) = target: T9, Snk(h) (Homo sapiens, UniProt Q9NYY3)
T9 construct: purchased Millipore
In short: as §1

FAK(h) = FAK(h) (Homo sapiens, UniProt Q05397)
In short: as §1

Sequence of PKCβI(h) (P05771 whole entry): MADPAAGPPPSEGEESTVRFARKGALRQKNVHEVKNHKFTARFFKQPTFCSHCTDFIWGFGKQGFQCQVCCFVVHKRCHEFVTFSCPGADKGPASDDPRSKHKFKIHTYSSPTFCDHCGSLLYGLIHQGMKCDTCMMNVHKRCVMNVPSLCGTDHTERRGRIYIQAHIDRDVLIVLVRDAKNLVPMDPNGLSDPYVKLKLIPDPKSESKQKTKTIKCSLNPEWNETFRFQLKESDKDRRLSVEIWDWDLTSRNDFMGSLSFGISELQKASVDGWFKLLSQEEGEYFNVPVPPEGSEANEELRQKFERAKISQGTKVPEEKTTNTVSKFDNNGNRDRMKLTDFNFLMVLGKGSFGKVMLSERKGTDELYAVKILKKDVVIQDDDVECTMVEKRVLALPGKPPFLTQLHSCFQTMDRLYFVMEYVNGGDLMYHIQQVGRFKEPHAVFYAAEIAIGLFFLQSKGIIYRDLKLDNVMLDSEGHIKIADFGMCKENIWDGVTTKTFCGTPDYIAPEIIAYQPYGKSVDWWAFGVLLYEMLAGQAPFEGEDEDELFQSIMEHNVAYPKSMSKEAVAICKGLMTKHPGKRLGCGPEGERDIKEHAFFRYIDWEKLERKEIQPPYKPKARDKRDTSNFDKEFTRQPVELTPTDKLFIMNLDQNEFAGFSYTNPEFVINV
T3 sequence (P06213 1005-1310 limits assumed): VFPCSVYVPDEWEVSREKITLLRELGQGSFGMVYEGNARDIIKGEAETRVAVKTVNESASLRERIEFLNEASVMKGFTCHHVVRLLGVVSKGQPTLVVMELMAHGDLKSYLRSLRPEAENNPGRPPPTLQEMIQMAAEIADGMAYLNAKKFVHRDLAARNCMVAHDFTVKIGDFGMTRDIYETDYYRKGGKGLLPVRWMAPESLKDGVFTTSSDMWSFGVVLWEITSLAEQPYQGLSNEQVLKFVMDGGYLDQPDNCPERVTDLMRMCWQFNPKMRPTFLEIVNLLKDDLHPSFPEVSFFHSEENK
Sequence of EphA5(h) (P54756 25-1037): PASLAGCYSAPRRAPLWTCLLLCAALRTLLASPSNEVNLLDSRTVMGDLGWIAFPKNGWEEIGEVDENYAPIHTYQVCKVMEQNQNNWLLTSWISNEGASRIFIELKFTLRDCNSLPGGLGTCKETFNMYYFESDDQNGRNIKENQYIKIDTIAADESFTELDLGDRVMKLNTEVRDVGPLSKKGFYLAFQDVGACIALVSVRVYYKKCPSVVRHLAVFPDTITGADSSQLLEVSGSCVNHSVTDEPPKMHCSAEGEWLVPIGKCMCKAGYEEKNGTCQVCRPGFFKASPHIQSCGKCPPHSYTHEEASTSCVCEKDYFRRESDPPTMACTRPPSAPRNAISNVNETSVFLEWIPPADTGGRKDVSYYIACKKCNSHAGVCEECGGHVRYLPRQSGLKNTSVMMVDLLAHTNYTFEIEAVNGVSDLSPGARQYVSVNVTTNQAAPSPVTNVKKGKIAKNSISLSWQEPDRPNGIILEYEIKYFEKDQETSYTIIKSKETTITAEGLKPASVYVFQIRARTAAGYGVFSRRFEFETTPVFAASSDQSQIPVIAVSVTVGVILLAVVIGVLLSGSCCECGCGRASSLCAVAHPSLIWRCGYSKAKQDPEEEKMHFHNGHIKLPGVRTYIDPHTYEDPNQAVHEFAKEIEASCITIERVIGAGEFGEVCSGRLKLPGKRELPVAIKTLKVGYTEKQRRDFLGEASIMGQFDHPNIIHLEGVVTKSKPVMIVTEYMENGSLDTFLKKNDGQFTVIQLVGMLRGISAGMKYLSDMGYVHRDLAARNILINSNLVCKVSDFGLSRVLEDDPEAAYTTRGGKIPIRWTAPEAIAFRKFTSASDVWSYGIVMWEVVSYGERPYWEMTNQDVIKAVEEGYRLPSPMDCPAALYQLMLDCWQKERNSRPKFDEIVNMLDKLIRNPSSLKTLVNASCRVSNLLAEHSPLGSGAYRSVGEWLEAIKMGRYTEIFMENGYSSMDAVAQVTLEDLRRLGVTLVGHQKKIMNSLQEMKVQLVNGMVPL
Sequence of Tie2(Y897S)(h) (Q02763 23-1124 Y897S): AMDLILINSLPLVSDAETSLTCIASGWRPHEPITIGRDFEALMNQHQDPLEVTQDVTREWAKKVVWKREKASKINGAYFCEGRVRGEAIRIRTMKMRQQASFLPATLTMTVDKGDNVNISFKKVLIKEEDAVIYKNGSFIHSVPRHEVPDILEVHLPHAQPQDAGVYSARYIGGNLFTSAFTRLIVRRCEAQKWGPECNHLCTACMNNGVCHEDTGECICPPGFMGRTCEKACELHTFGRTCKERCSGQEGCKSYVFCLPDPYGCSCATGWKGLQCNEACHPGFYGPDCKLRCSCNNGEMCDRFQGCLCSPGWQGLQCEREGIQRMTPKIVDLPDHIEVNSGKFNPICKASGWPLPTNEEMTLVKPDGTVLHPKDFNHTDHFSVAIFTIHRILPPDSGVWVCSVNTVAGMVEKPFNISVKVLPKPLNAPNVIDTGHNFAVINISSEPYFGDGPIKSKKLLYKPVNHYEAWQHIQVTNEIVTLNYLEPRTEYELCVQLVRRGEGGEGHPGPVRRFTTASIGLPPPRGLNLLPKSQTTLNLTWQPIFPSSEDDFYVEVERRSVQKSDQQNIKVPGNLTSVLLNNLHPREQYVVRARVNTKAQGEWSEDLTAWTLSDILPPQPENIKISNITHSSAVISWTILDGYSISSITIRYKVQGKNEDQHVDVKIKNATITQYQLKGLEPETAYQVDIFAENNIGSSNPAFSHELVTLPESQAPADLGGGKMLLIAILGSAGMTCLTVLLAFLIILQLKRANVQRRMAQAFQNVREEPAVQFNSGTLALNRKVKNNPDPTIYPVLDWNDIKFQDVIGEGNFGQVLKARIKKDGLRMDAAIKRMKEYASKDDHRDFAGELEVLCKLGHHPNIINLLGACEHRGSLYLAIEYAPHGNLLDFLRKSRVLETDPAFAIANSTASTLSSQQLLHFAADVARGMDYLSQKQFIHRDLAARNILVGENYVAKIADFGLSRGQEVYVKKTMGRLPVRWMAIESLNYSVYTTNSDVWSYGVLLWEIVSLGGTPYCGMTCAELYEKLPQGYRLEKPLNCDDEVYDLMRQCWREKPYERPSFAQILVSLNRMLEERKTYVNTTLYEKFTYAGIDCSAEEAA
T4 sequence (O75582 whole entry): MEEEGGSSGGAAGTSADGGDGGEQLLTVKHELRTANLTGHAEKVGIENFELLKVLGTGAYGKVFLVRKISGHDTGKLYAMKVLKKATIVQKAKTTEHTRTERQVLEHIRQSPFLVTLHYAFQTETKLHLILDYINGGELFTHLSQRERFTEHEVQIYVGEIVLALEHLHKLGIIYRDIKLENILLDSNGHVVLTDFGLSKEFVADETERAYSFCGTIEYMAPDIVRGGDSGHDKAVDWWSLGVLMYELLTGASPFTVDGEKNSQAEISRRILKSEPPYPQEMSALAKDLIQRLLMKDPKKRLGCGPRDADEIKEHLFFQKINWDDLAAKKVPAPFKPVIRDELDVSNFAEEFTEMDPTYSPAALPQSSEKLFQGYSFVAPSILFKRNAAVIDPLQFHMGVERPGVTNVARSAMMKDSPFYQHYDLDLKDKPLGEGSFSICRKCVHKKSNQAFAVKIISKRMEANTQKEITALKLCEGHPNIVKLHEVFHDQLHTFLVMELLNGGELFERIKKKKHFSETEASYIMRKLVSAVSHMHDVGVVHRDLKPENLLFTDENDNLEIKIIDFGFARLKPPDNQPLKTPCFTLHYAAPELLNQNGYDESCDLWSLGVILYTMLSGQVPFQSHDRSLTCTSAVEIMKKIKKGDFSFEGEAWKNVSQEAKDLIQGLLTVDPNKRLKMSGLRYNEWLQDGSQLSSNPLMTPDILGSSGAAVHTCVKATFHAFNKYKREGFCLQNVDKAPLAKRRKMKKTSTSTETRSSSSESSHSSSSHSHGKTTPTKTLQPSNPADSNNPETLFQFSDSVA
Sequence of FAK(h) (Q05397 whole entry): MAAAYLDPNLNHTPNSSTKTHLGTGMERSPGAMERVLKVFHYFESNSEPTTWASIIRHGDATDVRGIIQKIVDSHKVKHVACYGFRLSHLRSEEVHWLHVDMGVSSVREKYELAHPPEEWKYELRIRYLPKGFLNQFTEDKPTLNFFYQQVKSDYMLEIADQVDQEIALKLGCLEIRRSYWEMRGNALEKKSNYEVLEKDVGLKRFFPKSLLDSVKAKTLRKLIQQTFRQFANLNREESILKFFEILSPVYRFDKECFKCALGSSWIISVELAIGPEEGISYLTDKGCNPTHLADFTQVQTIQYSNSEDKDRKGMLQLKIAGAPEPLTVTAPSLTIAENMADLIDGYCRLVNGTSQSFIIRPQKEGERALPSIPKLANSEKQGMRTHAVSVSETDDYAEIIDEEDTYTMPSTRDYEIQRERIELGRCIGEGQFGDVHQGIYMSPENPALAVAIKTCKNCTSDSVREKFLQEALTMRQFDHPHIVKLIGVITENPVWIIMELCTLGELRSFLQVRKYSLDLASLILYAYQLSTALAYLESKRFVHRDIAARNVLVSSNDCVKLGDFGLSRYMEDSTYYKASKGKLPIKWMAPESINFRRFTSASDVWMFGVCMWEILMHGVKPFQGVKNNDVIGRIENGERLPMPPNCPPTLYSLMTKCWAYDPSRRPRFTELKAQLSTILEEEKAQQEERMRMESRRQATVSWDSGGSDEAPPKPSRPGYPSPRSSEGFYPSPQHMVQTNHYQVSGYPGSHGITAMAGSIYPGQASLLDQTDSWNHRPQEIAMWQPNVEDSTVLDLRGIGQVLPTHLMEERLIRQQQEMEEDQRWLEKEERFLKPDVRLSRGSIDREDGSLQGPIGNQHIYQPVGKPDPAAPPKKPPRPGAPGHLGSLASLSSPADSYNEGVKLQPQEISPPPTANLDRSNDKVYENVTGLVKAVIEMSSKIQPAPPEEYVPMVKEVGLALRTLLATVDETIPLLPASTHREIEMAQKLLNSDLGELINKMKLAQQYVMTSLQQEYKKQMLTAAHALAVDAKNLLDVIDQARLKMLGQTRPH

| Sequence | % activity (PKBβ(h)) | % activity (Rsk4(h)) | % activity (PKCε(h)) | % activity (CK1δ(h)) | % activity (IR(h), activated) | % activity (Fer(h)) | % activity (EphA5(h)) | % activity (MSK1(h)) | % activity (MLCK(h)) | % activity (EGFR(L861Q)(h)) | % activity (FGFR4(h)) | % activity (DMPK(h)) | % activity (Tie2(Y897S)(h)) | % activity (PKCβI(h)) | % activity (CDK3/cyclinE(h)) | % activity (Met(D1246H)(h)) | % activity (cSRC(h)) | % activity (JNK1α1(h)) | % activity (Snk(h)) | % activity (FAK(h)) |
| --- | --- | --- | --- | --- | --- | --- | --- | --- | --- | --- | --- | --- | --- | --- | --- | --- | --- | --- | --- | --- |
| FAKLAARLYRKALARQLGVAA [MMI-0300] | 84% | 90% | 79% | 92% | 79% | 130% | 18% | 32% | 2% | 25% | 28% | 59% | 83% | 78% | 94% | 125% | 26% | 97% | – | – |
| HRRIKAWLKKIKALARQLGVAA (Mammal) [MMI-0500] | 21% | 29% | 23% | 78% | 90% | 196% | 42% | 8% | 0% | 15% | 3% | 12% | 80% | 1% | 8% | 150% | 30% | – | 122% | 94% |
| KAFAKLAARLYRKALARQLGVAA [MMI-0400] | 98% | 91% | 59% | 93% | 59% | 108% | 24% | 28% | 1% | 22% | 19% | 54% | 87% | 78% | 92% | 68% | 14% | 98% | 131% | 96% |
| YARAAARQARAKALARQLGVAA [MMI-0100] | – | 99% | – | – | 127% | – | 110% | – | 85% | 53% | – | – | 99% | – | – | 99% | – | 91% | 94% | – |
| YARAAARQARAKALNRQLGVA (Mammal) [MMI-0200] | 250% | 125% | 98% | 92% | – | 101% | 123% | 50% | – | 74% | 75% | 66% | 85% | 98% | – | 139% | 32% | – | – | 110% |
